Assay results published in US20190233498A1 (H LUNDBECK A S, published 2019).

B1: anti-PACAP antibody Ab4.H (antibody, human IgG1, kappa, N297A, V domains shown)
VH: EVQLVESGGGLVQPGGSLRLSCAASGFSLSSYDMSWVRQAPGKGLEWIGIINTNDDTWYASWVKGRFTISRDNSKNTLYLQMNSLRAEDTAVYYCARISDAYVFDYAYYFTLWGQGTLVTVSS
VL: DIQMTQSPSTLSASVGDRVTITCLASQNIYNSLAWYQQKPGKAPKLLIYRASTLASGVPSRFSGSGSGTEFTLTISSLQPDDFATYYCQQGAGADNIGNPFGGGTKVEIKR
notes: humanized form of Ab4, full length
B2: anti-PACAP antibody Ab23 (antibody, human IgG1, kappa, N297A, V domains shown)
VH: QSVEESGGRLVTPGTPLTLTCTVSGFSLNNYAMSWVRQAPGKGLEWIGIMGVNDITYYASWAKGRFTISKTSTTVDLKMTSLTTEDTATYFCTREIRDDGDSSDKLWGPGTLVTVSS
VL: AIKMTQTPSSVSAAVGGTVTINCQASEDIYTNLAWYQQKPGQPPNLLIYDASDLASGVPSRFSGSGDGTQFTLTISAVQCEDAATYYCQGVAWSSNTGYGSAFGGGTEVVVKR
notes: full-length rabbit/human chimeric antibody; PACAP38 specific
B3: anti-PACAP antibody Ab3.H (antibody, human IgG1, kappa, N297A, V domains shown)
VH: EVQLVESGGGLVQPGGSLRLSCAASGFSFSSSDYMCWVRQAPGKGLEWIGCIDAGSSGDTYFASSAKGRFTISRDNSKNTVYLQMNSLRAEDTAVYFCARHLYGSITFAFGLWGQGTLVTVSS
VL: AAQMTQSPSTLSASVGDRVTITCQASQSIGSDLAWYQQKPGKAPKLLIYDASTLASGVPSRFSGSGSGTEFTLTISSLQPDDFATYYCQGTYYSSGWYTAFGGGTKVEIKR
notes: humanized form of Ab3, full length
B4: anti-PACAP antibody Ab22 (antibody, human IgG1, kappa, N297A, V domains shown)
VH: QEQLVESGGGLVQPEGSLTLTCTASGFDFSSNAMCWVRQAPGKGLEWIGSIYNADGKNYYAIWAKGRFTISRTSSTTVTLQMTSLTAADTATYFCARDFDLWGQGTLVTVSS
VL: AAVLTQTPSPVSAAVGGTVTINCQSSQSVYDNDWLAWFQQKPGQPPKLLIYLTSTLASGVPSRFSGSGSGTQFTLTISGVQCDDAATYYCLGGYDEDGDTHVFGGGTEVVVKR
notes: as for B2
B5: anti-PACAP antibody Ab5.H (antibody, human IgG1, kappa, N297A, V domains shown)
VH: EVQLVESGGGLVQPGGSLRLSCAASGFSLSSYAMIWVRQAPGKGLEWVGIIYDNGDTYYASSAKGRFTISRDNSKNTVYLQMNSLRAEDTAVYFCAREPGSTTQNDLWGQGTLVTVSS
VL: DVQMTQSPSTLSASVGDRVTITCQASENIYNSLLWYQQKPGKAPKLLIYRASTLASGVPSRFSGSGSGTEFTLTISSLQPDDFATYYCQNYYNIWTNGAAFGGGTKVEIKR
notes: humanized form of Ab5, full length
B6: anti-PACAP antibody Ab9.H (antibody, human IgG1, kappa, N297A, V domains shown)
VH: EVQLVESGGGLVQPGGSLRLSCAASGFTVSRDYWICWVRQAPGKGLEWIGCISAGGGSTDYANWVNGRFTISRDISKNTGYLQMNSLRAEDTAVYYCAGNLEIWGQGTLVTVSS
VL: DIQMTQSPSTLSASVGDRVTITCQSSPSIYSGAFLSWYQQKPGKAPKFLIYEASKLASGVPSRFSGSGSGTEFTLTISSLQPDDFATYYCLGFYDCSSVDCHAFGGGTKVEIKR
notes: humanized form of Ab9, full length
B7: anti-PACAP antibody Ab2 (antibody, human IgG1, kappa, N297A, V domains shown)
VH: QSVEESGGRLVTPGTPLTLTCTVSGFSLSGAAMNWVRQAPGKGLEWIGVIGNSGSTYYASWAKGRFTISKTSSTTVDLKMTSPTTEDTATYFCARGGGEFFIWGQGTLVTVSS
VL: AQVLTQTPSPVSAAVGGTVTINCQSSESVYKNNYLSWYQQKPGQPPKFLIYQASNLADGVPSRFKGSGSGTQFTLTISDLECDDAATYYCAGGYSTYMSGFGGGTEVVVKR
notes: full-length rabbit/human chimeric antibody

Tests used:
[1] = biological target: T1, human PACAP38 (human, not fully specified; C-terminal lysine is amidated; N-terminal or C-terminal biotin in the HTRF and PC-12 cell binding assays); assay: SPR, Ab immobilised
T1 construct: synthetic peptide, bought; also called huPACAP (1-38)
T1 peptide: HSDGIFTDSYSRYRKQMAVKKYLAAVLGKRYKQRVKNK
Method in brief: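 SPR with antibody amine-coupled to the chip and human PACAP38 flowed as analyte at 1.23–100 nM in PBST containing 0.25 M arginine, 0.2 mg/ml BSA and 0.005% azide, pH 7. Association lasted 2–4 min and dissociation 3–120 min. Kinetics were fitted to a 1:1 Langmuir model.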

[2] = biological target: T2, human PACAP27 (human, C-terminal leucine is amidated; 125I-labelled in Example 10); assay: SPR, Ab immobilised
T2 peptide: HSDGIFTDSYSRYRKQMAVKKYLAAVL

[3] = biological target: T3, human VIP (human); assay: SPR, Ab immobilised
T3 construct: also called Vasoactive Intestinal Peptide
T3 peptide: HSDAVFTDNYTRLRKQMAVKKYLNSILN

[4] = biological target: T1, human PACAP38; assay: cell-based or functional assay
[5] = biological target: T2, human PACAP27; assay: cell-based or functional assay
[6] = biological target: T1, human PACAP38; assay: cell-based or functional assay
[7] = biological target: T1, human PACAP38; assay: cell-based or functional assay
[8] = biological target: T1, human PACAP38; assay: inhibition of 30 nM biotin-PACAP38 binding to PC-12 cells, TRF
Description: To identify antibodies that block PACAP38 binding to PAC1-R-expressing cells, adherent PC-12 cells (ATCC, Manassas, Va.) expressing PAC1-R were used in a Europium-based PAC1-R expressing cells binding assay.
Antibody solutions were incubated with N-terminal biotinylated PACAP38 at 10× the final concentration (100 nM or 30 nM) for 1 hr, then added to PC-12 cells that were plated 24 hrs. prior in black clear bottom 96 well plates (COSTAR™, Corning Incorporated, Corning, N.Y.) and further incubated for 1 hr at room temperature. After three washes, the cells were incubated with 20 μl Europium-labeled streptavidin (PerkinElmer, Waltham, Mass.) for 1 hr at room temperature. Cells were washed three times, then 20 μl DELFIA® Enhancement solution (PerkinElmer, Waltham, Mass.) was added to each well and incubated for 15 minutes with gentle shaking. Plates were read (Time Resolved Fluorescence (“TRF”)) on SPECTRAMAX® (Molecular Devices, Sunnyvale, Calif.) plate reader.
FIGS. 14A-14BB are representative of the inhibition curves obtained by this method (results are shown for Ab1, Ab2, Ab3, Ab4, Ab5, Ab6, Ab7, Ab8, Ab9, Ab10, Ab11, Ab12, Ab13, Ab14, Ab15, Ab16, Ab17, Ab18, Ab19, Ab1.H, Ab10.H, Ab22, Ab23, Ab3.H, Ab4.H, Ab5.H, Ab9.H, and Ab12.H, respectively) wherein the PAC1-R expressing cells were PC-12 cells.

[9] = biological target: T1, human PACAP38; assay: HTRF binding, biotin-PACAP38
Method in brief: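 Antibody dilution series (top 100 nM final) incubated with N- or C-terminal biotinylated PACAP38 (35 nM final), alone or with 350 nM PACAP27 or VIP. HTRF with Eu³⁺ anti-human Fc donor and d2-streptavidin acceptor, 1 h at room temperature, read at 620/665 nm; EC₅₀ from binding curves.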

[10] = biological target: T1, human PACAP38; assay: inhibition of 100 nM biotin-PACAP38 binding to PC-12 cells, TRF
Method in brief: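 Antibodies were preincubated 1 h with N-terminally biotinylated PACAP38, then added to adherent PAC1-R-expressing PC-12 cells for 1 h at room temperature. After washing, bound peptide was detected with Europium-streptavidin (1 h, RT) plus DELFIA enhancement, read by time-resolved fluorescence, and inhibition curves were generated.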

Binder | Kd [1] | koff [1] | kon [1] | Kd [2] | koff [2] | kon [2] | Kd [3] | koff [3] | kon [3] | IC50, 0.1 nM PACAP38-induced PAC1-R mediated cAMP increase [4] | IC50, 0.1 nM PACAP27-induced PAC1-R mediated cAMP increase [5] | IC50, 5 nM PACAP38-induced human VPAC1-R mediated cAMP increase [6] | IC50, 1 nM PACAP38-induced human VPAC2-R mediated cAMP increase [7] | IC50 [8] | EC50 [9] | IC50 [10]
B1 | 0.1 nM | 3.2e-05 s⁻¹ | 310000 M⁻¹ s⁻¹ | ≤ 0.031 nM | ≤ 1e-05 s⁻¹ | 330000 M⁻¹ s⁻¹ | 0.072 µM | 0.024 s⁻¹ | 330000 M⁻¹ s⁻¹ | 0.000307 µM | 0.294 nM | 0.0026 µM | 0.00449 µM | 0.098 µM | – | –
B2 | 0.071 nM | 3.6e-05 s⁻¹ | 510000 M⁻¹ s⁻¹ | 35 nM | 0.031 s⁻¹ | 890000 M⁻¹ s⁻¹ | 0.73 µM | 0.32 s⁻¹ | 430000 M⁻¹ s⁻¹ | 0.000115 µM | – | 0.00267 µM | 0.00179 µM | 0.0149 µM | 0.00056 µM | –
B3 | 0.29 nM | 0.00014 s⁻¹ | 490000 M⁻¹ s⁻¹ | 1 nM | 0.00034 s⁻¹ | 330000 M⁻¹ s⁻¹ | 100000 µM | 0.1 s⁻¹ | – | 0.00132 µM | 1.21 nM | 0.00733 µM | 0.0642 µM | 0.0883 µM | – | –
B4 | ≤ 0.027 nM | ≤ 1e-05 s⁻¹ | 370000 M⁻¹ s⁻¹ | – | 0.1 s⁻¹ | – | 0.69 µM | 0.18 s⁻¹ | 270000 M⁻¹ s⁻¹ | 0.000101 µM | – | 0.0013 µM | 0.000515 µM | 0.0138 µM | 0.00057 µM | –
B5 | 0.031 nM | 1.7e-05 s⁻¹ | 550000 M⁻¹ s⁻¹ | 0.48 nM | 0.00013 s⁻¹ | 270000 M⁻¹ s⁻¹ | 100000 µM | 0.1 s⁻¹ | – | 0.000378 µM | 0.217 nM | 0.00277 µM | 0.00747 µM | 0.0349 µM | – | –
B6 | 0.061 nM | 6.1e-05 s⁻¹ | 1e+06 M⁻¹ s⁻¹ | 0.12 nM | 7.7e-05 s⁻¹ | 620000 M⁻¹ s⁻¹ | 1.5 µM | 0.14 s⁻¹ | 93000 M⁻¹ s⁻¹ | 0.000278 µM | 0.271 nM | 0.00246 µM | 0.00265 µM | 0.0225 µM | – | –
B7 | ≤ 0.044 nM | ≤ 1e-05 s⁻¹ | 230000 M⁻¹ s⁻¹ | ≤ 0.012 nM | ≤ 1e-05 s⁻¹ | 830000 M⁻¹ s⁻¹ | 0.14 µM | 0.084 s⁻¹ | 580000 M⁻¹ s⁻¹ | 0.000237 µM | 0.063 nM | 0.000688 µM | 0.000174 µM | – | 0.00035 µM | 0.0266 µM
